Results on 13 molecules are retold here after patent publication US20200002414A1 (published 2020).

Test [1] deals with T1, human Ror2 (human, UniProt Q01974 34-403, limits assumed).
T1 construct: also called hROR2; receptor tyrosine kinase-like orphan receptor 2
Kind of test: ELISA, human Ror2, pH 7.4.

Test [2] has as its target T1, human Ror2. Kind of test: ELISA, human Ror2, pH 6.0.
Test [3] concerns the target T1, human Ror2. Kind of test: ELISA, human Ror2; ratio of signal at pH 6.0 to pH 7.4.

T1 sequence (Q01974 34-403 limits assumed): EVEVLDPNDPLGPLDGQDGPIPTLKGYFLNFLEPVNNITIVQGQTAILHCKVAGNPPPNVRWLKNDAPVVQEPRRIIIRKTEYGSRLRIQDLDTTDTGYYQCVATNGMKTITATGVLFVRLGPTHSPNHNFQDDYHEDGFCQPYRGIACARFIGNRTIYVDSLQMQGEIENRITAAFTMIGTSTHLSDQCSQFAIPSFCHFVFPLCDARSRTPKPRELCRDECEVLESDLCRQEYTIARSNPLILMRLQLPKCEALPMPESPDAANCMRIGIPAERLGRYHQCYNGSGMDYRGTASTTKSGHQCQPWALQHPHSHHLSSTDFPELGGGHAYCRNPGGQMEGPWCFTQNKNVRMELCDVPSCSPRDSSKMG

B1: HC-R098H (antibody, V domains shown)
VH: EVQLQQSGPELVKPGASVKISCKTSGYTFTEYTMHWMKQSHRKSLEWIGGINTNNGGTGYNQKFKGKATLTVDKSSSTAYMELRSLTSEDSAVYFCAHGSLYSYGNSYFDYWGQGTLVTVSS
VL: QIVLTQSPAIMSASPGEKVTITCSATSSVSYMHWFQQKPGTSPKLWIYGTSNLASGVPARFSGSGSGTSYSLTISRMEAEDAATYYCQQRSSYPFTFGQGTKVEIK
On to B1, for which the “Affinity ELISA pH 7.4” value in the test with human Ror2 [1] is 0.353. The “Affinity ELISA pH 6.0” value with human Ror2 [2] was 0.928. Besides, the “ratio, pH 6.0/7.4” value in the test with human Ror2 [3] was 2.63.

B2: HC-W112L (antibody, V domains shown)
VH: EVQLQQSGPELVKPGASVKISCKTSGYTFTEYTMHWMKQSHRKSLEWIGGINTNNGGTGYNQKFKGKATLTVDKSSSTAYMELRSLTSEDSAVYFCARGSLYSYGNSYFDYLGQGTLVTVSS
VL: QIVLTQSPAIMSASPGEKVTITCSATSSVSYMHWFQQKPGTSPKLWIYGTSNLASGVPARFSGSGSGTSYSLTISRMEAEDAATYYCQQRSSYPFTFGQGTKVEIK
With B2, the “Affinity ELISA pH 7.4” value with human Ror2 [1] came to 1.7. For the same molecule, the “Affinity ELISA pH 6.0” value in the test with human Ror2 [2] turned out to be 1.75. The “ratio, pH 6.0/7.4” value with human Ror2 [3] came out at 1.75.

B3: HC-G099E (antibody, V domains shown)
VH: EVQLQQSGPELVKPGASVKISCKTSGYTFTEYTMHWMKQSHRKSLEWIGGINTNNGGTGYNQKFKGKATLTVDKSSSTAYMELRSLTSEDSAVYFCARESLYSYGNSYFDYWGQGTLVTVSS
VL: QIVLTQSPAIMSASPGEKVTITCSATSSVSYMHWFQQKPGTSPKLWIYGTSNLASGVPARFSGSGSGTSYSLTISRMEAEDAATYYCQQRSSYPFTFGQGTKVEIK
B3: in the test with human Ror2 [1], the “Affinity ELISA pH 7.4” value stood at 0.421. Also, in the test with human Ror2 [2], the “Affinity ELISA pH 6.0” value worked out at 0.616. In the test with human Ror2 [3], the “ratio, pH 6.0/7.4” value was determined as 1.46.

B4: HC-G105D (antibody, V domains shown)
VH: EVQLQQSGPELVKPGASVKISCKTSGYTFTEYTMHWMKQSHRKSLEWIGGINTNNGGTGYNQKFKGKATLTVDKSSSTAYMELRSLTSEDSAVYFCARGSLYSYDNSYFDYWGQGTLVTVSS
VL: QIVLTQSPAIMSASPGEKVTITCSATSSVSYMHWFQQKPGTSPKLWIYGTSNLASGVPARFSGSGSGTSYSLTISRMEAEDAATYYCQQRSSYPFTFGQGTKVEIK
B4: in the test with human Ror2 [1], the “Affinity ELISA pH 7.4” value turned out to be 0.379. Also, the “Affinity ELISA pH 6.0” value with human Ror2 [2] stood at 0.509. Besides, the “ratio, pH 6.0/7.4” value with human Ror2 [3] was determined as 1.34.

B5: HC-F029E (antibody, V domains shown)
VH: EVQLQQSGPELVKPGASVKISCKTSGYTETEYTMHWMKQSHRKSLEWIGGINTNNGGTGYNQKFKGKATLTVDKSSSTAYMELRSLTSEDSAVYFCARGSLYSYGNSYFDYWGQGTLVTVSS
VL: QIVLTQSPAIMSASPGEKVTITCSATSSVSYMHWFQQKPGTSPKLWIYGTSNLASGVPARFSGSGSGTSYSLTISRMEAEDAATYYCQQRSSYPFTFGQGTKVEIK
For the molecule B5, the “Affinity ELISA pH 7.4” value in the test with human Ror2 [1] came to 0.742. Also, in the test with human Ror2 [2], the “Affinity ELISA pH 6.0” value was 1.34. Further, the “ratio, pH 6.0/7.4” value with human Ror2 [3] was 1.81.

B6: HC-L101F (antibody, V domains shown)
VH: EVQLQQSGPELVKPGASVKISCKTSGYTFTEYTMHWMKQSHRKSLEWIGGINTNNGGTGYNQKFKGKATLTVDKSSSTAYMELRSLTSEDSAVYFCARGSFYSYGNSYFDYWGQGTLVTVSS
VL: QIVLTQSPAIMSASPGEKVTITCSATSSVSYMHWFQQKPGTSPKLWIYGTSNLASGVPARFSGSGSGTSYSLTISRMEAEDAATYYCQQRSSYPFTFGQGTKVEIK
In the case of B6, the “Affinity ELISA pH 7.4” value in the test with human Ror2 [1] was 1.41. Further, the “Affinity ELISA pH 6.0” value in the test with human Ror2 [2] was 1.46. For the same molecule, the “ratio, pH 6.0/7.4” value with human Ror2 [3] came to 1.46.

B7: HC-Y032D (antibody, V domains shown)
VH: EVQLQQSGPELVKPGASVKISCKTSGYTFTEDTMHWMKQSHRKSLEWIGGINTNNGGTGYNQKFKGKATLTVDKSSSTAYMELRSLTSEDSAVYFCARGSLYSYGNSYFDYWGQGTLVTVSS
VL: QIVLTQSPAIMSASPGEKVTITCSATSSVSYMHWFQQKPGTSPKLWIYGTSNLASGVPARFSGSGSGTSYSLTISRMEAEDAATYYCQQRSSYPFTFGQGTKVEIK
Regarding B7, in the test with human Ror2 [1], the “Affinity ELISA pH 7.4” value worked out at 0.51. Also, in the test with human Ror2 [2], the “Affinity ELISA pH 6.0” value came to 1.47. Further, in the test with human Ror2 [3], the “ratio, pH 6.0/7.4” value came out at 2.88.

B8: HC-S103G (antibody, V domains shown)
VH: EVQLQQSGPELVKPGASVKISCKTSGYTFTEYTMHWMKQSHRKSLEWIGGINTNNGGTGYNQKFKGKATLTVDKSSSTAYMELRSLTSEDSAVYFCARGSLYGYGNSYFDYWGQGTLVTVSS
VL: QIVLTQSPAIMSASPGEKVTITCSATSSVSYMHWFQQKPGTSPKLWIYGTSNLASGVPARFSGSGSGTSYSLTISRMEAEDAATYYCQQRSSYPFTFGQGTKVEIK
Turning to B8, in the test with human Ror2 [1], the “Affinity ELISA pH 7.4” value is 0.655. Further, the “Affinity ELISA pH 6.0” value in the test with human Ror2 [2] was found to be 0.794. Moreover, the “ratio, pH 6.0/7.4” value with human Ror2 [3] was determined as 1.21.

B9: HC-R098Q (antibody, V domains shown)
VH: EVQLQQSGPELVKPGASVKISCKTSGYTFTEYTMHWMKQSHRKSLEWIGGINTNNGGTGYNQKFKGKATLTVDKSSSTAYMELRSLTSEDSAVYFCAQGSLYSYGNSYFDYWGQGTLVTVSS
VL: QIVLTQSPAIMSASPGEKVTITCSATSSVSYMHWFQQKPGTSPKLWIYGTSNLASGVPARFSGSGSGTSYSLTISRMEAEDAATYYCQQRSSYPFTFGQGTKVEIK
As to B9, the “Affinity ELISA pH 7.4” value with human Ror2 [1] was 0.276. Moreover, the “Affinity ELISA pH 6.0” value with human Ror2 [2] worked out at 0.799. Moreover, in the test with human Ror2 [3], the “ratio, pH 6.0/7.4” value is 2.89.

B10: HC-Y111T (antibody, V domains shown)
VH: EVQLQQSGPELVKPGASVKISCKTSGYTFTEYTMHWMKQSHRKSLEWIGGINTNNGGTGYNQKFKGKATLTVDKSSSTAYMELRSLTSEDSAVYFCARGSLYSYGNSYFDTWGQGTLVTVSS
VL: QIVLTQSPAIMSASPGEKVTITCSATSSVSYMHWFQQKPGTSPKLWIYGTSNLASGVPARFSGSGSGTSYSLTISRMEAEDAATYYCQQRSSYPFTFGQGTKVEIK
Turning to B10, the “Affinity ELISA pH 7.4” value in the test with human Ror2 [1] amounted to 1.4. Also, in the test with human Ror2 [2], the “Affinity ELISA pH 6.0” value was determined as 1.86. The “ratio, pH 6.0/7.4” value with human Ror2 [3] was found to be 1.68.

B11: HC-D110L (antibody, V domains shown)
VH: EVQLQQSGPELVKPGASVKISCKTSGYTFTEYTMHWMKQSHRKSLEWIGGINTNNGGTGYNQKFKGKATLTVDKSSSTAYMELRSLTSEDSAVYFCARGSLYSYGNSYFLYWGQGTLVTVSS
VL: QIVLTQSPAIMSASPGEKVTITCSATSSVSYMHWFQQKPGTSPKLWIYGTSNLASGVPARFSGSGSGTSYSLTISRMEAEDAATYYCQQRSSYPFTFGQGTKVEIK
As to B11, in the test with human Ror2 [1], the “Affinity ELISA pH 7.4” value was found to be 1.4. Besides, the “Affinity ELISA pH 6.0” value in the test with human Ror2 [2] was determined as 1.68. Besides, the “ratio, pH 6.0/7.4” value with human Ror2 [3] worked out at 1.68.

B12: HC-Y111C (antibody, V domains shown)
VH: EVQLQQSGPELVKPGASVKISCKTSGYTFTEYTMHWMKQSHRKSLEWIGGINTNNGGTGYNQKFKGKATLTVDKSSSTAYMELRSLTSEDSAVYFCARGSLYSYGNSYFDCWGQGTLVTVSS
VL: QIVLTQSPAIMSASPGEKVTITCSATSSVSYMHWFQQKPGTSPKLWIYGTSNLASGVPARFSGSGSGTSYSLTISRMEAEDAATYYCQQRSSYPFTFGQGTKVEIK
For B12, the “Affinity ELISA pH 7.4” value with human Ror2 [1] is 0.793. Also, the “Affinity ELISA pH 6.0” value with human Ror2 [2] was 1.08. For the same molecule, in the test with human Ror2 [3], the “ratio, pH 6.0/7.4” value was 1.36.

B13: HC-N106E (antibody, V domains shown)
VH: EVQLQQSGPELVKPGASVKISCKTSGYTFTEYTMHWMKQSHRKSLEWIGGINTNNGGTGYNQKFKGKATLTVDKSSSTAYMELRSLTSEDSAVYFCARGSLYSYGESYFDYWGQGTLVTVSS
VL: QIVLTQSPAIMSASPGEKVTITCSATSSVSYMHWFQQKPGTSPKLWIYGTSNLASGVPARFSGSGSGTSYSLTISRMEAEDAATYYCQQRSSYPFTFGQGTKVEIK
Turning to B13, the “Affinity ELISA pH 7.4” value with human Ror2 [1] turned out to be 0.115. The “Affinity ELISA pH 6.0” value with human Ror2 [2] came out at 0.224. Besides, in the test with human Ror2 [3], the “ratio, pH 6.0/7.4” value was 1.95.
